Measured values: PMC4284078 (Virology, 2014)

Molecular target: recombinant full-length HSP70 in fusion with N-terminal maltose binding protein (MBP) (UniProt P0DMV8 1-641)
Assay: SPR

Sequence of recombinant full-length HSP70 in fusion with N-terminal maltose binding protein (MBP) (P0DMV8 whole entry, the tested form may be a part): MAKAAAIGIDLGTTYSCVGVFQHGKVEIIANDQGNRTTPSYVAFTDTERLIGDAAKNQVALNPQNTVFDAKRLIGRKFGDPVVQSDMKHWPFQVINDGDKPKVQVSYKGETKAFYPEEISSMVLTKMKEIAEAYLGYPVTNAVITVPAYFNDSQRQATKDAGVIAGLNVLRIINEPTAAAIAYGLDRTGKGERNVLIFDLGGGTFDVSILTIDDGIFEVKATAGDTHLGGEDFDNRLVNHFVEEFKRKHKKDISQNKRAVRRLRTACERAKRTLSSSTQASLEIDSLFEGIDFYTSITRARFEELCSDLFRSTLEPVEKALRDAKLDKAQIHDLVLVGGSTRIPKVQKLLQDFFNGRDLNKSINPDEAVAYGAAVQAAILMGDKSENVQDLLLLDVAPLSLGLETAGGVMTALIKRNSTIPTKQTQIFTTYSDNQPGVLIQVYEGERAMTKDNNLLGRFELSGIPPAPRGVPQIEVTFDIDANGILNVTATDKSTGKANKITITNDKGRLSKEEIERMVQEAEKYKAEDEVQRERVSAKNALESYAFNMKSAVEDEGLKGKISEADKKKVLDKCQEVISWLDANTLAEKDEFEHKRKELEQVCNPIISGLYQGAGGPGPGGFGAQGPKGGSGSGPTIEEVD

B1: NS5A domain I (domain or fragment)
chain: SGSWLRDIWDWICEVLSDFKTWLKAKLMPQLPGIPFVSCQRGYRGVWRGDGIMHTRCHCGAEITGHVKNGTMRIVGPRTCKNMWSGTFFINAYTTGPCTPLPAPNYKFALWRVSAEEYVEIRRVGDFHYVSGMTTDNLKCPCQIPSPEFFTELDGVRLHRFAPPCKPLLREEVSFRVGLHEYPVGSQLPCEPEPDVAVLTSMLTDPSHITAEA
Kd: 316 nM
